Read-outs that look alike come from different tables or passages of the source.
How the values were obtained:
HIS tag = molecular target: T1, HIS tag; experiment: ELISA
T1 construct: also called his6 tag; 6-His
T1 peptide: HHHHHH

[1] = molecular target: T2, recombinant human PCSK9 (aa 31-692) with C-terminal His6 tag (human, UniProt Q8NBP7 31-692); experiment: cell-based or functional assay
[2] = molecular target: T2, recombinant human PCSK9 (aa 31-692) …; experiment: cell-based or functional assay; remark: listed apart in the source
[3] = molecular target: T2, recombinant human PCSK9 (aa 31-692) …; experiment: solution equilibrium titration (SET), MSD electrochemiluminescence read-out
Method: Serial dilutions of Pcsk9 were prepared, and antibodies were added to each antigen concentration to reach a constant antibody concentration of 100 pM. 100 μL/well of each dilution mix was distributed in duplicate to a 96-well polypropylene microtiter plate (Greiner). The plate was sealed and incubated over night at room temperature. A 96-well Standard Bind microtiter plate (Meso Scale Discovery) was coated with 25 μL of 1 μg/mL Pcsk9 diluted in PBS. This plate was sealed and incubated over night at 4° C. After the incubation the antigen-coated Standard Bind micro titer plate was washed three times with 200 [L per well PBS/0.05% (w/v) Tween 20. Subsequently, the plate was blocked with 150 μL/well PBS/5% (w/v) BSA and incubated for one hour at room temperature with shaking. The washing steps were repeated and 25 μL/well of the antibody-antigen preparation from the polypropylene microtiter plate was transferred into the antigen-coated Standard Bind plate. The Standard Bind plate was incubated for 60 min at room temperature with shaking. […] Electrochemiluminescence signals were generated and detected by a Sector Imager 6000 (Meso Scale Discovery). […]

[4] = molecular target: T3, cynomolgus macaque PCSK9 with C-terminal his6 tag (cynomolgus monkey); experiment: solution equilibrium titration (SET), fit by the model of Piehler et al.
T3 chain: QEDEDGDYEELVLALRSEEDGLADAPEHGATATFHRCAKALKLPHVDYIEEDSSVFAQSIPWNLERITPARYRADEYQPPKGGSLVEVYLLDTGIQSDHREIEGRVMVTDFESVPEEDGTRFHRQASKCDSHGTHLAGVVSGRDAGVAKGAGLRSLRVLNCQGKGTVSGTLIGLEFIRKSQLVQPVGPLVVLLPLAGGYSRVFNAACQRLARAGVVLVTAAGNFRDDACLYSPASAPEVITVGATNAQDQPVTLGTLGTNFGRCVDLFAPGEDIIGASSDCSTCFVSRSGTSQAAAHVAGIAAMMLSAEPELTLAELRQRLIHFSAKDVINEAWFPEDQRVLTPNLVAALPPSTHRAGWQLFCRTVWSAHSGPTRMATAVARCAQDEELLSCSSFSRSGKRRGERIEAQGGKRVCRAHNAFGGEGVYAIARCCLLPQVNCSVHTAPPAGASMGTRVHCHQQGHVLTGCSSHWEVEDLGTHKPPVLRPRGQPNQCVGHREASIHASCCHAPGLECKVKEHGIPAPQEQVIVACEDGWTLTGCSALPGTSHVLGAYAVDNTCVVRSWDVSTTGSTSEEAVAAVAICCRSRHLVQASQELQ
Method: (§1) The binding kinetics of the final selected candidates were analyzed using a Solution Equilibrium Titration (“SET”) assay. Briefly, serial dilutions of human, cyno, mouse, or rat Pcsk9 were prepared, and anti-Pcsk9 Ab was added to each antigen concentration to reach a constant antibody concentration of 100 pM. 100 μL/well of each dilution mix was distributed in duplicate to a 96-well polypropylene microtiter plate (Greiner). The plate was sealed and incubated over night at room temperature. A 96-well Standard Bind microtiter plate (Meso Scale Discovery) was coated with 25 μL of 1 μg/mL Pcsk9 diluted in PBS. This plate was sealed and incubated overnight at 4° C. After the incubation the antigen-coated Standard Bind micro titer plate was washed three times with 200 μL per well PBS/0.05% (w/v) Tween 20. Subsequently, the plate was blocked with 150 μL/well PBS/5% (w/v) BSA and incubated for one hour at room temperature with shaking. The washing steps were repeated and 25 μL/well of the antibody-antigen preparation from the polypropylene microtiter plate was transferred into the antigen-coated Standard Bind plate. The Standard Bind plate was incubated for 60 min at room temperature with shaking. After three additional washing steps, 25 μL of 1 μg/mL Sulfo-Tag-labeled goat anti-human-detection antibody (R32AJ-5, Meso Scale Discovery) diluted in PBS/1% (w/v) BSA/0.05% (w/v) Tween 20, buffer were added to each well and incubated one hour at room temperature with shaking. […] Electrochemiluminescence signals were generated and detected by a Sector Imager 6000 (Meso Scale Discovery).

murine PCSK9 = molecular target: T4, murine PCSK9 (mouse, UniProt Q80W65 35-694, limits assumed); experiment: as above
T4 construct: also called mouse Pcsk9
Method: as §1

[5] = molecular target: T2, recombinant human PCSK9 (aa 31-692) …; experiment: TR-FRET competition, labelled hPcsk9 (8 nM) and labelled hLDL-R (1 nM); MAB1 antibody as competitor
Method: The percentage inhibition was calculated with the following formula: 100−[(normalized value of treated sample/averaged normalized value of untreated samples)×100]. The percentage inhibition dose response curves were plotted using Prism version 5 with the formula, Y=Bottom+(Top−Bottom)/(1+10̂((LogIC50−X)*HillSlope)) (GraphPad Prism Software).

[6] = molecular target: biotinylated PCSK9-Avi-His6 (human) (UniProt Q8NBP7); experiment: ForteBio Octet bio-layer interferometry, biotinylated PCSK9-Avi-His6 on streptavidin sensors, Fab in solution
[7] = molecular target: T2, recombinant human PCSK9 (aa 31-692) …; experiment: TR-FRET competition, hPcsk9-AF (8 nM) and hLDL-R-Eu (1 nM)
Source text: Data are representative of at least two independent experiments.

[8] = molecular target: T2, recombinant human PCSK9 (aa 31-692) …; experiment: solution equilibrium titration (SET), MSD electrochemiluminescence read-out; remark: listed apart in the source
Method: The binding kinetics of the final selected candidates were analyzed using a Solution Equilibrium Titration (“SET”) assay. Briefly, serial dilutions of human, cyno, mouse, or rat Pcsk9 were prepared, and anti-Pcsk9 Ab was added to each antigen concentration to reach a constant antibody concentration of 100 pM. 100 μL/well of each dilution mix was distributed in duplicate to a 96-well polypropylene microtiter plate (Greiner). The plate was sealed and incubated over night at room temperature. A 96-well Standard Bind microtiter plate (Meso Scale Discovery) was coated with 25 μL of 1 μg/mL Pcsk9 diluted in PBS. This plate was sealed and incubated overnight at 4° C. After the incubation the antigen-coated Standard Bind micro titer plate was washed three times with 200 μL per well PBS/0.05% (w/v) Tween 20. Subsequently, the plate was blocked with 150 μL/well PBS/5% (w/v) BSA and incubated for one hour at room temperature with shaking. The washing steps were repeated and 25 μL/well of the antibody-antigen preparation from the polypropylene microtiter plate was transferred into the antigen-coated Standard Bind plate. The Standard Bind plate was incubated for 60 min at room temperature with shaking. […] Electrochemiluminescence signals were generated and detected by a Sector Imager 6000 (Meso Scale Discovery).

hFgfr4 hFc [9] = molecular target: T5, hFgfr4 hFc (human, UniProt P22455); experiment: specificity ELISA, antigen coated at 88 ng per well, absorbance 650 nm
T5 sequence (fusion chain, looked up): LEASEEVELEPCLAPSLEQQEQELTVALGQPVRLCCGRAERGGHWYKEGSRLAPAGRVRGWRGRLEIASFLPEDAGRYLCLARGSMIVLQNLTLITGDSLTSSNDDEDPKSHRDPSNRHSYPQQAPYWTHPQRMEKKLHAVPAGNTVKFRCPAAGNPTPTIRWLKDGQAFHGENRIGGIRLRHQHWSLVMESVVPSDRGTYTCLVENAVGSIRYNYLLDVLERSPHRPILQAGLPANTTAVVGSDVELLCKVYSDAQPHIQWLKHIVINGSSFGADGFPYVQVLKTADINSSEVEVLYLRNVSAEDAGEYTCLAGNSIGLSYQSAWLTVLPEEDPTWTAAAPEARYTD
Method: (§2) For specificity ELISAs on purified human and mouse IgGs, a 384-well plate was coated with a panel of purified human or mouse antigens at 88 ng per well and incubated overnight at 4° C. The plate was blocked and washed as described above, then 22 μL of purified mouse or human anti-PCSK9 antibody diluted to 2 μg/mL in PBS was added to each well. The plate was incubated for 1 hr at 37° C. then washed with PBST. […] The plate was incubated for 1 hr at room temperature, then washed and developed as described above.

Rat (Pcsk9 homolog) = Rat (Pcsk9 homolog) (rat, UniProt P59996); experiment: solution equilibrium titration (SET), fit by the model of Piehler et al.
Method: as §1

[10] = molecular target: T2, recombinant human PCSK9 (aa 31-692) …; experiment: solution equilibrium titration (SET): soluble human PCSK9 titrated against 100 pM antibody, free antibody captured on a Pcsk9-coated MSD plate; the concentration is that of human PCSK9
Method: Briefly, serial dilutions of human, cyno, mouse, or rat Pcsk9 were prepared, and anti-Pcsk9 Ab was added to each antigen concentration to reach a constant antibody concentration of 100 pM. 100 μL/well of each dilution mix was distributed in duplicate to a 96-well polypropylene microtiter plate (Greiner). The plate was sealed and incubated over night at room temperature. A 96-well Standard Bind microtiter plate (Meso Scale Discovery) was coated with 25 μL of 1 μg/mL Pcsk9 diluted in PBS. This plate was sealed and incubated overnight at 4° C. After the incubation the antigen-coated Standard Bind micro titer plate was washed three times with 200 μL per well PBS/0.05% (w/v) Tween 20. Subsequently, the plate was blocked with 150 μL/well PBS/5% (w/v) BSA and incubated for one hour at room temperature with shaking. The washing steps were repeated and 25 μL/well of the antibody-antigen preparation from the polypropylene microtiter plate was transferred into the antigen-coated Standard Bind plate. The Standard Bind plate was incubated for 60 min at room temperature with shaking. […] Electrochemiluminescence signals were generated and detected by a Sector Imager 6000 (Meso Scale Discovery).

hFgfr4 hFc [11] = molecular target: T5, hFgfr4 hFc; experiment: specificity ELISA, antigen coated at 88 ng per well, absorbance 650 nm; remark: listed apart in the source
Method: as §2

T4 sequence (Q80W65 other isoform, or with tags, fused parts or gaps limits assumed): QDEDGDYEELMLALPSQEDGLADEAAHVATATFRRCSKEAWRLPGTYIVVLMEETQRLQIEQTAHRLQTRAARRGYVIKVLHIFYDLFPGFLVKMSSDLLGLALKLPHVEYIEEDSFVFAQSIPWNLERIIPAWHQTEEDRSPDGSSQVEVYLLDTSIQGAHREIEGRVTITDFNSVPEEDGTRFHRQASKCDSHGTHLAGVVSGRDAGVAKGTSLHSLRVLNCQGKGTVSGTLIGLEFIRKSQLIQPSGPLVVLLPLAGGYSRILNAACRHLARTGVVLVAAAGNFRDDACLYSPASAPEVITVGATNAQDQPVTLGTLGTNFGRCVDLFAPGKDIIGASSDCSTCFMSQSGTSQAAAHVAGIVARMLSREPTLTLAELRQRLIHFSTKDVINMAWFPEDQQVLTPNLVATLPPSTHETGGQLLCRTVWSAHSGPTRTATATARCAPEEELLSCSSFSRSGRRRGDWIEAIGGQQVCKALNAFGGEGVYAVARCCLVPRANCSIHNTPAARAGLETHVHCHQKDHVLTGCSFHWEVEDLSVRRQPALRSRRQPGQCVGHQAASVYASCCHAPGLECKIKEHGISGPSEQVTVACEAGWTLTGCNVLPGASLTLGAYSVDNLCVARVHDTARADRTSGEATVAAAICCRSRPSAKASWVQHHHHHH
Rat (Pcsk9 homolog), sequence (P59996 31-691 limits assumed): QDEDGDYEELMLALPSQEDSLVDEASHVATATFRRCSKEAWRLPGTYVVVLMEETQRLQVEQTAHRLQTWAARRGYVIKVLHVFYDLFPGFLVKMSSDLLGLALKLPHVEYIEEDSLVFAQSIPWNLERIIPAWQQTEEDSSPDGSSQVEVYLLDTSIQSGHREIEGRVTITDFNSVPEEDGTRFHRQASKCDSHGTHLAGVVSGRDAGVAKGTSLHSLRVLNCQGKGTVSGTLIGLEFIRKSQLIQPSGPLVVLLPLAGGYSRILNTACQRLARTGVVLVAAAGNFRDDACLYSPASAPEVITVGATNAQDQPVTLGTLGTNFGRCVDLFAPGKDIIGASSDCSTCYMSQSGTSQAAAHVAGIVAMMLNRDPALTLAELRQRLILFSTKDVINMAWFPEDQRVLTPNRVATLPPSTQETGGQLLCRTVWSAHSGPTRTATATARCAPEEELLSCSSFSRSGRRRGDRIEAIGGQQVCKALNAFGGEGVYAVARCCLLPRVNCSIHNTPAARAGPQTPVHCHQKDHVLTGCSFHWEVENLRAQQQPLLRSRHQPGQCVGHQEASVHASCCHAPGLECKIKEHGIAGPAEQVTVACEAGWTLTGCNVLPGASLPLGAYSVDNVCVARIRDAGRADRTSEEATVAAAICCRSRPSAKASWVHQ

B1: mouse monoclonal antibody MAB1 (antibody, V domains shown)
VH: QVTLKESGPGILQPSQTLSLTCSFSGFSLSTSGMGVGWIRQPSGEGLEWLADIWWDDNKYYNPSLKSRLTVSKDTSSNQVFLKITSVDTADTATYYCALITTEGGFAYWGQGTLVTVSA
VL: DIVLTQSPATLSVTPGDSVSLSCRASQSINNNLHWYQQKSHESPRLLIKFASRSISGIPSKFSGSGSGTDFTLSINSVETEDFGMYFCQQSNYWPLTFGAGTNLELI
notes: also called parent mouse monoclonal antibody; murine anti-human Pcsk9 IgG1-kappa monoclonal antibody
Does B1 bind (HIS tag)?
Result: no binding

And the “DiI-LDL-uptake by HepG2 cells treated with exogenous hPcsk9, EC50” value [1]?
Its value is 194 nM.

What about the “EC50, LDL-R protection (surface LDL-R on HepG2 cells, flow cytometry)” value (“EC50, LDL-R protection” for short) [2] of the same binder?
Its value is 309 nM.

What about the Kd [3] of the same binder?
The Kd was 0.27 nM.

And the Kd [4]?
The Kd was 0.23 nM.

And the Kd (murine PCSK9)?
The Kd was over 10000 nM.

What about the IC50 [5] of the same binder?
Its IC50 is 77 nM.

B2: fully Humaneered Fab Clone #44 (Fab, part only; not given: kappa light chain, V domains shown, part only)
VH: QITLKESGPVLVKPTETLTLTCTVSGFSLSTSGVGVGWIRQPPGKALEWLADIWWDDNKYYNPSLKSRLTISKDTSKNQVVLTMTNMDPVDTATYYCARITTEGGFAYWGQGTLVTVSS
B2 was tested. Which Kd [6] did it give?
The Kd was 22.3 nM.

B3: Humaneered antibody MAB2 (antibody, human IgG1, V domains shown)
VH: QITLKESGPVLVKPTETLTLTCTVSGFSLSTSGVGVGWIRQPPGKALEWLADIWWDDNKYYNPSLKSRLTISKDTSKNQVVLTMTNMDPVDTATYYCARITTEGGFAYWGQGTLVTVSS
VL: DIQMTQSPSSLSASVGDRVTITCRAGQRISHNLHWYQQKPDESPRLLINFASRLISGVPSRFSGSGSGTDFTLTISSLQPEDFATYYCQQSNYWPLTFGQGTKLEIK
How did the “EC50, LDL uptake (DiI-LDL uptake by HepG2 cells with hPCSK9, flow cytometry)” value [2] turn out when B3 was run?
Its value is 210 nM.

What about the “EC50, LDL-R protection” value [2] of the same binder?
Its value is 324 nM.

And the IC50 [7]?
The IC50 was 20 nM.

And the Kd [8]?
Its Kd is 0.26 nM.

Does B3 bind (hFgfr4 hFc [9])?
Result: no binding (tested: 2 µg/mL (single concentration))

And the Kd (Rat (Pcsk9 homolog))?
Its Kd is over 10000 nM.

And the Kd [4]?
The Kd was 0.4 nM.

What about the Kd (murine PCSK9) of the same binder?
Its Kd is over 10000 nM.

What about the “IC50 (read off the curve)” value [10] of the same binder?
The value was about 0.3 nM.

B4: Humaneered antibody MAB3 (antibody, human IgG1, V domains shown)
VH: QVTLKESGPTLVKPTQTLTLTCTVSGFSLSTSGVGVGWIRQSPGKALEWLADIWWDDNKYYNPSLKSRLTISKDTSKNQVVLTMTNMDPVDTATYYCARITTEGGFAYWGQGTLVTVSS
VL: DIQMTQSPSSLSASVGDRVTITCRAGQRISHNLHWYQQKPDESPRLLINFASRLISGVPSRFSGSGSGTDFTLTISSLQPEDFATYYCQQSNYWPLTFGQGTKLEIK
How did the “EC50, LDL uptake (DiI-LDL uptake by HepG2 cells with hPCSK9, flow cytometry)” value [2] turn out when B4 was run?
Its value is 168 nM.

What about the “EC50, LDL-R protection” value [2] of the same binder?
The value was 300 nM.

And the IC50 [7]?
Its IC50 is 28 nM.

What about the Kd [8] of the same binder?
The Kd was 0.3 nM.

Does B4 bind (hFgfr4 hFc [11])?
Result: no binding (tested: 2 µg/mL (single concentration))

And the Kd (Rat (Pcsk9 homolog))?
The Kd was over 10000 nM.

What about the Kd [4] of the same binder?
Its Kd is 0.4 nM.

And the Kd (murine PCSK9)?
The Kd was over 10000 nM.

And the “IC50 (read off the curve)” value [10]?
Its value is about 0.3 nM.

Source: US20130315927A1 (Novartis, published 2013)
